Read-outs that look alike come from different tables or passages of the source. Peptide text beside a SMILES is read from it.

In test [1] the target is T1, substance P receptor (SPR) (Homo sapiens, UniProt P25103).
T1 construct: expressed in transfected cells; host or cells: Sf9 insect cells
Put plainly: Recovery of phage on Sf9 cells expressing substance P receptor (control). The note with it: phage displaying the sequence. The test is classed as binding. As for the experimental part: (§1) 3.) The phage selected in round 2 were reselected on Sf9 cells expressing fluPAR (day 2 post-infection) as described for round 1 (2.8×10^10 phage on 10^6 Sf9 cells). The yield of binding phage from this round was 5.40% (1.5×10^9 pfu), indicating a substantial enrichment in binding phage. Sample phage from the urea eluate were cloned, and their DNAs isolated and sequenced. Binding was assayed against Sf9 cells expressing fluPAR, and Sf9 cells expressing substance P receptor ("SPR," as a control).

For another test, the target named is T2, huPAR (Homo sapiens, UniProt Q03405).
T2 construct: Sf9 cells expressing full length huPAR ("fluPAR", day 2 post infection); expressed in transfected cells; host or cells: Sf9 insect cells (day 2 post infection)
T2 sequence (Q03405 23-335): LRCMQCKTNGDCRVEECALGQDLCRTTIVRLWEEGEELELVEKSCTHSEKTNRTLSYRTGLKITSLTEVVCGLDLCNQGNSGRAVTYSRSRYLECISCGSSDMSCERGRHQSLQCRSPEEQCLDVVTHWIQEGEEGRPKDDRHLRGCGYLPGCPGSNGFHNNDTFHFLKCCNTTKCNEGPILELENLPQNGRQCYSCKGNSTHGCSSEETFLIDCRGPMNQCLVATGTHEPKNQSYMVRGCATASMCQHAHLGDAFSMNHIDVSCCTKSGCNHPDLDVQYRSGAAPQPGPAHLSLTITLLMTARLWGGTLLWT
Put plainly: Recovery of phage on Sf9 cells expressing full length huPAR. Type of test: binding. The following applies: phage displaying the sequence; Sf9 cells expressing fluPAR. As for the experimental part:
1.) 15mer phage (2.5×10^10) prepared as described above were selected by coincubation with 10^6 Sf9 cells expressing full length huPAR ("fluPAR", day 2 post infection) at room temperature for 60 minutes in Grace's medium with 2% nonfat milk. Binding phage were eluted with 6M urea (pH 2.2), the pH neutralized by adding 2M Tris-HCl, and assayed. The yield of binding phage was 0.0013% (3.3×10^5 pfu). The phage were amplified on solid agar plates as plaques, eluted with Tris-buffered saline, and precipitated with polyethylene glycol.
as §1

The target of the next test is T3, human urokinase receptor (Homo sapiens, UniProt Q03405).
T3 construct: expressed as a truncated, soluble molecule as described previously for mouse L-cells (Masucci et al., J Biol Chem (1991) 266:8655); made in house; host or cells: baculovirus / insect cells
T3 sequence (Q03405 23-299 limits assumed): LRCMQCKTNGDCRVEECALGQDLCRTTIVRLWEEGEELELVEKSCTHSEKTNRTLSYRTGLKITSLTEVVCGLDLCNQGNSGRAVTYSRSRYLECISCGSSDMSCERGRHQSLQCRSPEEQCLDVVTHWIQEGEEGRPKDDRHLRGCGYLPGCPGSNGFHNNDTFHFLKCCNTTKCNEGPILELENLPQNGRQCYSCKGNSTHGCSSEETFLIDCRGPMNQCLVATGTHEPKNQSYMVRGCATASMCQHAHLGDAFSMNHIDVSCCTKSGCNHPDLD
Put plainly: Competition of 125I-ATF binding to immobilized soluble recombinant human urokinase receptor. The note with it: read-out: Affinity. From the text: 4.) The peptides encoded by 25 phage were then synthesized by solid phase peptide chemistry on an Applied Biosystems Model 430A peptide synthesizer,using Boc chemistry, or were obtained from Chiron Mimotopes, Ltd., as soluble peptides. All peptides contained the Ala-Glu dipeptide at the amino terminus and were amidated at the carboxy terminus.
Baculovirus-derived recombinant human urokinase receptor was expressed as a truncated, soluble molecule as described previously for mouse L-cells (Masucci et al., J Biol Chem (1991) 266:8655). The purified receptor was biotinylated with NHS-biotin, and immobilized at 1 μg/mL in PBS/0.1% BSA on streptavidin coated 96-well plates. Human uPA ATF (residues 1-135, obtained from M. Shuman, University of California, San Francisco) was iodinated using the Iodogen method (Pierce), and used as tracer. The ^125 I-ATF was incubated at 100-500 pM with increasing amounts of peptide from 1 nM to 10 μM in triplicate for 2 hours at room temperature in 0.1% BSA/PBS in a total volume of 200 μL. The plates were then washed 3 times with PBS/BSA, and the remaining bound radioactivity determined.
*Assay performed at 100 pM ATF, 0.3 μg/ml suPAR in 200 μL. Other
assays are corrected to these conditions; corrections are about 3 ×
from previous assay conditions.

In a further test the target is uPAR (Homo sapiens, UniProt Q03405). The following applies: Appella et al. 1987; cited from earlier work.
Sequence of uPAR (Q03405 23-335, species assumed): as the sequence (Q03405 23-335) above
Setting [2] is: unstarred values: corrected to 100 pM ATF, 0.3 μg/ml suPAR, corrections about 3 × from previous assay conditions.

T1 sequence (P25103 whole entry, species assumed): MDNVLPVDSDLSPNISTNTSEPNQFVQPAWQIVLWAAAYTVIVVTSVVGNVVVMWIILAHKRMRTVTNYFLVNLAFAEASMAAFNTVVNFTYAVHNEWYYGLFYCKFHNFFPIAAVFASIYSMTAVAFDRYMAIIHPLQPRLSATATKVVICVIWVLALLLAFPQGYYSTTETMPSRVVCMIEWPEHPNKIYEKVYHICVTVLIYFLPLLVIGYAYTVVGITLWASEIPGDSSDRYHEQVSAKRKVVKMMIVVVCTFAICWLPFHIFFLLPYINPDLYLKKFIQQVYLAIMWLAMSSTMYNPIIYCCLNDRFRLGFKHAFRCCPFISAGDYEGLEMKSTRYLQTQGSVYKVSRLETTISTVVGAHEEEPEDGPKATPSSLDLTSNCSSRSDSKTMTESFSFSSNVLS

“37 (AECLNGGTAVSNKYFSNIHWCN) [compound 37]”: in test [1], the “% Recovery SPR” value was found to be 0.008%. Besides, the “% Recovery huPAR” value with huPAR was found to be 6.8%.

In the case of `CC(C)C[C@H](NC(=O)CNC(=O)[C@@H]1CCCN1C(=O)[C@H](Cc1c[nH]cn1)NC(=O)[C@H](Cc1c[nH]c2ccccc12)NC(=O)[C@H](CCC(=O)O)NC(=O)[C@H](C)N)C(=O)N[C@@H](CO)C(=O)N[C@@H](Cc1ccccc1)C(=O)NCC(=O)N[C@@H](CO)C(=O)N[C@@H](Cc1ccc(O)cc1)C(=O)N[C@@H](CC(C)C)C(=O)N[C@@H](Cc1c[nH]c2ccccc12)C(=O)N[C@@H](CO)C(=O)N[C@@H](CCCCN)C(=O)N[C@H](C(N)=O)[C@@H](C)O` [compound 2] (H-AEWHPGLSFGSYLWSKT-NH2), the Kd on human urokinase receptor (setting [2]) was determined as 0.35 µM.

With `CSCC[C@H](NC(=O)[C@@H](NC(=O)[C@H](CC(N)=O)NC(=O)[C@H](CO)NC(=O)[C@H](CC(C)C)NC(=O)[C@H](Cc1ccccc1)NC(=O)[C@H](Cc1c[nH]c2ccccc12)NC(=O)[C@H](C)NC(=O)[C@H](CCC(=O)O)NC(=O)[C@H](C)N)[C@@H](C)O)C(=O)N[C@@H](CCCCN)C(=O)N[C@@H](C)C(=O)N[C@@H](CC(C)C)C(=O)N[C@@H](CO)C(=O)N[C@@H](C)C(=O)N[C@@H](CCCNC(=N)N)C(=O)N[C@@H](CC(C)C)C(N)=O` [compound 13] (H-AEAWFLSNTMKALSARL-NH2), the Kd at human urokinase receptor (setting [2]) was found to be 5 µM.

For `CC(C)C[C@H](NC(=O)[C@H](CCCNC(=N)N)NC(=O)[C@H](CC(C)C)NC(=O)[C@@H]1CCCN1C(=O)[C@H](Cc1ccccc1)NC(=O)[C@H](CCC(N)=O)NC(=O)[C@H](Cc1ccc(O)cc1)NC(=O)[C@H](CC(C)C)NC(=O)[C@H](CCC(N)=O)NC(=O)[C@H](Cc1c[nH]c2ccccc12)NC(=O)[C@H](CC(C)C)NC(=O)[C@@H](NC(=O)[C@@H]1CCCN1C(=O)[C@H](CCC(=O)O)NC(=O)[C@H](C)N)[C@@H](C)O)C(=O)N[C@@H](CO)C(=O)NCC(N)=O` [compound 14] (H-AEPTLWQLYQFPLRLSG-NH2), the Kd on human urokinase receptor (starred values: assay performed at 100 pM ATF, 0.3 μg/ml suPAR in 200 μL) was 4 µM.

Take “uPA12-32: The critical domain alone, residues 12-32 of uPA EGF-like domain (DCLNGGTCVSNKYFSNIHWCN; UniProt P00749 32-52, looked up, fragment)”: in the test with uPAR, the “affinity fold less than intact ATF” value is “about 100 fold”.

The values are drawn from patent US5679782A, “Oligonucleotides encloding peptide inhibitors of urokinase receptor activity” (Chiron Corporation, priority 1995, dated 1997).
